The target of experiment [1] is T1, IL-18 peptide NRPLFEDMTDSDCR (SEQ ID NO: 36) (human).
T1 peptide: NRPLFEDMTDSDCR
In words: overlapping IL-18 peptide panel.

Experiment [2] addresses T2, recombinant human IL-18 (rhIL-18) (human, UniProt Q14116 37-193, biotinylated (D-biotinyl-epsilon-aminocaproic acid NHS ester, 2:1 molar ratio of biotin to rhIL-18) in the BIAcore assay; not said to be biotinylated in the KG-1 assay).
T2 construct: also called full length human IL-18; biotinylated rhIL-18
Put plainly: SPR (BIAcore), biotinylated rhIL-18 on streptavidin chip, antibody in solution. Here is the method:
Real-time binding interactions between ligand (biotinylated recombinant human IL-18 (rhIL-18) immobilized on a biosensor matrix) and analyte (antibodies in solution) were measured by surface plasmon resonance (SPR) using the BIAcore system (Pharmacia Biosensor, Piscataway, N.J.). The system utilizes the optical properties of SPR to detect alterations in protein concentrations within a dextran biosensor matrix. Proteins are covalently bound to the dextran matrix at known concentrations. Antibodies are injected through the dextran matrix and specific binding between injected antibodies and immobilized ligand results in an increased matrix protein concentration and resultant change in the SPR signal.
Biotinylated rhIL-18 to be immobilized on the matrix via streptavidin was diluted in PBS running buffer (Gibco Cat. No. 14190-144, Gibco BRL, Grand Island, N.Y.) supplemented with 0.05% (BIAcore) surfactant P20 (Pharmacia BR-1000-54, Pharmacia Biosensor, Piscataway, N.J.). To determine the capacity of rhIL-18-specific antibodies to bind immobilized rhIL-18, a binding assay was conducted as follows. Aliquots of biotinylated rhIL-18 (25 nM; 10 μl aliquots) were injected through the streptavidin-coupled dextran matrix at a flow rate of 5 μl/min. Before injection of the protein and immediately afterward, PBS buffer alone flowed through each flow cell. The net difference in signal between baseline and approximately 30 sec. after completion of biotinylated rhIL-18 injection was taken to represent the binding value. Direct rhIL-18-specific antibody binding to immobilized biotinylated rhIL-18 was measured. Antibodies (20 μg/ml) were diluted in PBS running buffer and 25 μl aliquots were injected through the immobilized protein matrices at a flow rate of 5 μl/min. Prior to injection of antibody, and immediately afterwards, PBS buffer alone flowed through each flow cell. The net difference in baseline signal and signal after completion of antibody injection was taken to represent the binding value of the particular sample. Biosensor matrices were regenerated using 100 mM HCl before injection of the next sample.
Background: Surface plasmon resonance follows binding to a sensor surface in real time, without labels.

Experiment [3] deals with T2, recombinant human IL-18 (rhIL-18). Put plainly: cell-based or functional assay.
Experiment [4] has as its target T3, IL-18 peptide PLFEDMTDSDCRDNA (SEQ ID NO: 1) (human).
T3 peptide: PLFEDMTDSDCRDNA
In words: told in a figure legend; 2E1 selected by phage display on an IL-18 peptide epitope.

Experiment [5] deals with T2, recombinant human IL-18 (rhIL-18). Put plainly: SPR (BIAcore), biotinylated rhIL-18, scFv.
For experiment [6] the target is unchanged. In words: SPR (BIAcore), biotinylated rhIL-18 on streptavidin chip.
Experiment [7] shares this target. In words: cell-based or functional assay. This is another data set of the same source.

One may read the kon as the rate constant with which the complex forms. What is called Kd is the constant that tells how readily two partners part at equilibrium. As usually defined, the koff is a measure of how fast the partners let go of each other.

B1: 2E1 (parent) ScFv (scFv, V domains shown)
VH: QVQLVQSGAEVKKPGASMKVSCKTSGYTFTGYYIHWVRQAHGQGFEWIGRLNPTTGDANFAEKFQGRVALTRDTSISTAYLQLDSLKSDDTAVYYCAGKEGAWGQGTLVTVSS
VL: SSELTQDPAVSVALGQTVRITCQGDSLRHFYPNWYQQKPGQAPVLVIYGKNNRPSGIPDRFSGSGSGNTGSLTITGAQAEDEADYYCGSRDSSGIHVVFGGGTKVTVLG
notes: Tested as single-chain Fv; also called single chain Fv version of antibody 2E1; 2E1 single chain antibody
With B1, the binding result in experiment [1] and in experiment [4] was “binds” throughout. Moreover, the kon in experiment [2] is 2600 M⁻¹ s⁻¹. Further, the “IC50 Value, KG-1 cell-based IL-18 neutralization assay (hIFN-gamma)” value (“IC50 Value” for short) in experiment [3] worked out at 33 nM.

B2: 2E1 mutant L34S + H53R (2E1RS) (scFv, V domains shown)
VH: QVQLVQSGAEVKKPGASMKVSCKTSGYTFTGYYIHWVRQAHGQGFEWIGRLNPRTGDANFAEKFQGRVALTRDTSISTAYLQLDSLKSDDTAVYYCAGKEGAWGQGTLVTVSS
VL: SSELTQDPAVSVALGQTVRITCQGDSLRHFYPSWYQQKPGQAPVLVIYGKNNRPSGIPDRFSGSGSGNTGSLTITGAQAEDEADYYCGSRDSSGIHVVFGGGTKVTVLG
Regarding B2, the “fold improvement over the parent antibody 2E1” value in experiment [5] is over 10 fold. Moreover, in experiment [2], the Kd came to 23 nM, the koff was determined as 6.82e-05 s⁻¹ and the kon worked out at 2700 M⁻¹ s⁻¹. In addition, the “fold improvement over the parent antibody 2E1 (BIAcore analysis)” value in experiment [6] is over 10 fold. Also, in experiment [7], the “fold improvement over the parent antibody 2E1, KG-1 cell-based assay” value was over 10 fold. For the same molecule, the “IC50 Value” value in experiment [3] turned out to be 3 nM.

B3: 2E1 mutant H53R (scFv, V domains shown)
VH: QVQLVQSGAEVKKPGASMKVSCKTSGYTFTGYYIHWVRQAHGQGFEWIGRLNPRTGDANFAEKFQGRVALTRDTSISTAYLQLDSLKSDDTAVYYCAGKEGAWGQGTLVTVSS
VL: SSELTQDPAVSVALGQTVRITCQGDSLRHFYPNWYQQKPGQAPVLVIYGKNNRPSGIPDRFSGSGSGNTGSLTITGAQAEDEADYYCGSRDSSGIHVVFGGGTKVTVLG
With B3, in experiment [2], the koff turned out to be 0.00234 s⁻¹. For the same molecule, the “IC50 Value” value in experiment [3] stood at 25 nM.

B4: 2E1 mutant L34S + H53R + H58Q (scFv, V domains shown)
VH: QVQLVQSGAEVKKPGASMKVSCKTSGYTFTGYYIHWVRQAHGQGFEWIGRLNPRTGDAQFAEKFQGRVALTRDTSISTAYLQLDSLKSDDTAVYYCAGKEGAWGQGTLVTVSS
VL: SSELTQDPAVSVALGQTVRITCQGDSLRHFYPSWYQQKPGQAPVLVIYGKNNRPSGIPDRFSGSGSGNTGSLTITGAQAEDEADYYCGSRDSSGIHVVFGGGTKVTVLG
Take B4: in experiment [2], the dissociation rate constant (koff) worked out at 6.18e-05 s⁻¹. Moreover, the “IC50 Value” value in experiment [3] turned out to be 2.8 nM.

B5: 2E1 mutant L34S + H53Y (scFv, V domains shown)
VH: QVQLVQSGAEVKKPGASMKVSCKTSGYTFTGYYIHWVRQAHGQGFEWIGRLNPYTGDANFAEKFQGRVALTRDTSISTAYLQLDSLKSDDTAVYYCAGKEGAWGQGTLVTVSS
VL: SSELTQDPAVSVALGQTVRITCQGDSLRHFYPSWYQQKPGQAPVLVIYGKNNRPSGIPDRFSGSGSGNTGSLTITGAQAEDEADYYCGSRDSSGIHVVFGGGTKVTVLG
As for B5, in experiment [2], the koff worked out at 5.28e-05 s⁻¹. In addition, the “IC50 Value” value in experiment [3] is 6.7 nM.

B6: 2E1 mutant L34S (scFv, V domains shown)
VH: QVQLVQSGAEVKKPGASMKVSCKTSGYTFTGYYIHWVRQAHGQGFEWIGRLNPTTGDANFAEKFQGRVALTRDTSISTAYLQLDSLKSDDTAVYYCAGKEGAWGQGTLVTVSS
VL: SSELTQDPAVSVALGQTVRITCQGDSLRHFYPSWYQQKPGQAPVLVIYGKNNRPSGIPDRFSGSGSGNTGSLTITGAQAEDEADYYCGSRDSSGIHVVFGGGTKVTVLG
Take B6: the koff in experiment [2] was determined as 0.000169 s⁻¹. Further, in experiment [3], the “IC50 Value” value was 15 nM.

B7: 2E1 (parent) IgG (antibody, V domains shown)
VH: QVQLVQSGAEVKKPGASMKVSCKTSGYTFTGYYIHWVRQAHGQGFEWIGRLNPTTGDANFAEKFQGRVALTRDTSISTAYLQLDSLKSDDTAVYYCAGKEGAWGQGTLVTVSS
VL: SSELTQDPAVSVALGQTVRITCQGDSLRHFYPNWYQQKPGQAPVLVIYGKNNRPSGIPDRFSGSGSGNTGSLTITGAQAEDEADYYCGSRDSSGIHVVFGGGTKVTVLG
For the molecule B7, the “IC50 Value” value in experiment [3] turned out to be 0.9 nM.

Values taken from patent publication US20130101595A1 (AbbVie / Abbott, published 2013).
